Where a chain is given by its changes, count along the chain named.
T1: human galectin-10-His (recombinant human galectin-10 with TEV-cleavable N-terminal His-tag) (human)
T1 construct: SEC-MALLS: dimer in solution; also called Gal10-His; humanGal10-His
T1 chain: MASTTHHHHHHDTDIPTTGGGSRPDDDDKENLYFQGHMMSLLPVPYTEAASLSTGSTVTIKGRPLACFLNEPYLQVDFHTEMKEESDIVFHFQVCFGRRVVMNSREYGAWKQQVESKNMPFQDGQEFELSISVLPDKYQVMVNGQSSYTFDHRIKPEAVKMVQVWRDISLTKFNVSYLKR

T2: TEV-cleaved wild-type recombinant human galectin-10 (soluble, in Fab complexes, or as recombinant galectin-10 … (human, UniProt Q05315 1-142))
T2 sequence: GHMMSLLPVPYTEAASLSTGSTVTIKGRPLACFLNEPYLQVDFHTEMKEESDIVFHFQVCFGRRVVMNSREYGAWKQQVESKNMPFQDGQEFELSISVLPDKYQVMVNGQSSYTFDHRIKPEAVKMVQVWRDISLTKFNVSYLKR

T3: human galectin-10-His (human)
T3 construct: The last M of the tag may be Met1 of galectin-10; also called humanGal10-His; hGal10
T3 chain: T1 chain

T4: cynomolgus galectin-10-His, WGS isoform (cynomolgus)
T4 construct: also called cynoGal10-WGS; not shown: His tag
T4 chain: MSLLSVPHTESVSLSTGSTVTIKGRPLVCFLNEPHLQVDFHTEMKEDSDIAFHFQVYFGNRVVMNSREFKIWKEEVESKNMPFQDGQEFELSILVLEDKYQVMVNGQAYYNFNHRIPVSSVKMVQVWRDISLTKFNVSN

T5: cynomolgus galectin-10-His, YRT isoform (cynomolgus)
T5 construct: also called cynoGal10-YRT; not shown: His tag
T5 chain: T4 chain with K23E, G24A, L31F, F69Y, K70R, I71T, S92R

B1: 6F06 mouse IgG1 (antibody, V domains shown)
VH: QVQLVESGGGLVQPGGSLRLSCAASEFTFSRYSMSWVRQAPGKGLEWVSTINSGGGSTSYVDSVKGRFTISRDNAKNTLYLQMNSLKPEDTAVYYCTKSQGGISFSTQYGMDYWGKGTLVTVSS
VL: NFMLTQPSAVSVSLGQTARITCQGGNFGRYYANWYQQKPGQAPVLVIYKDSERPSGIPERFSGSSSGDTATLTISGAQAEDESDYYCQSGSVSDNAVFGGGTHLAVL
notes: also called 6F06 mIgG1
B2: 7B07 scFv-human Fc (Fc fusion)
scFv: QVQLVESGGGLVQPGGSLRLSCAASGFTFRSYDMSWVRQAPGKGPEWVSAIKNGGGITYYADSVKGRFTISRDNAKNTLYLQMNSLKPEDTAVYYCATTHGIGTLGFGSWGQGTQVTVSSGGGGSGGGGSGGGGSSYELTQSASVSVALTQTAKITCDGNNIGSKSAQWYQQKPGQAPALVIYADEYRPEGIPERFSGSNSGNTATLIISGAQAEDEADYYCQVWDGSAAVFGRGTHLTVL
notes: also called 007B07; not shown: CH2-CH3 constant domains of human IgG1 (pUPEX50 scFv-Fc fusion vector)
B3: 10A06 scFv-human Fc (Fc fusion)
scFv: QVQLVESGGGLVQPGGSLRLSCAASGFTFGNYDMSWVRQAPGKGPEWVSDINSGGGSTYYADSVKGRFTISRDNAKNSLLLQMNSLKPEDTAVYYCATGYTGYYYWGQGTQVTVSSGGGGSGGGGSGGGGSQTVVTQEPSLSVSPGGTVTLTCGLSSGSVTSSNYPAWYQQTPGQAPRALIYSINSRHSGVPDRFSGSISGNKAALTITGAQAEDEADYYCTLYMGTGSNNVVFGGGTHLTVL
notes: also called 010A06; not shown: CH2-CH3 constant domains of human IgG1 (pUPEX50 scFv-Fc fusion vector)
B4: 11F02 scFv-human Fc (Fc fusion)
scFv: ELQVVESGGGLVQPGGSLRLSCAASGFTFSTNYMNWVRQAPGKGLEWVSGITSHGARTYYADSVKGRFTISRDNSKNTLYLQMNSLKPEDTALYYCARTDHASLDAWGQGTLVTVSSGGGGSGGGGSGGGGSQTVVTQEPSLSVSPGGTVTLTCGLSSGSVTSSNYPGWYQQKPGQAPRTLIYNTNSRYSGVPNRFSGSISGNKAALTITGAQPEDEADYYCALYMGSSSYNTVFGGGTHLTVL
notes: also called 011F02; not shown: CH2-CH3 constant domains of human IgG1 (pUPEX50 scFv-Fc fusion vector)

Columns and labels:
[1] = target: T1, human galectin-10-His (recombinant …); assay: BLI tandem on galectin-10-His; competitor: saturating 6F06 mIgG1 (10 ug/mL)
How it was run: (§1)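 Read-out is the BLI wavelength shift (nm) from the competitor antibody, measured after the captured antigen has already been saturated by another antibody. Absence of shift means both antibodies share the binding site.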

[2] = target: T1, human galectin-10-His (recombinant …); assay: ELISA, mouse IgG1 on coated galectin-10-His (0.2 ug/mL)
How it was run: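 Serial dilutions of each antibody (from 100 nM, 1/4 steps, 12 points) were incubated on plates coated overnight with the antigen. Bound IgG1 detected with anti-mouse Fc-HRP, absorbance at 450 nm (reference 620 nm). EC50 from four-parameter variable-slope non-linear regression of OD values.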

[3] = target: T1, human galectin-10-His (recombinant …); assay: BLI tandem on galectin-10-His; competitor: saturating 4E08 mIgG1 (10 ug/mL)
How it was run: as §1

[4] = target: T1, human galectin-10-His (recombinant …); assay: SPR Biacore T3000, mouse IgG1 captured by anti-mouse Fc, galectin-10-His as analyte
How it was run: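 Polyclonal anti-mouse Fc on a CM5 chip (8000 RU) captured each mouse IgG1 (1.5 μg/mL) to around 150 RU. Galectin-10-His was then injected as a 1:2 serial dilution from 5 μg/mL in HBS-EP pH7.4. After blank subtraction, kd/KD and Rmax came from a simultaneous ka/kd fit with mass transfer and local Rmax.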

[5] = target: T1, human galectin-10-His (recombinant …); assay: BLI tandem on galectin-10-His; competitor: saturating 6A05 mIgG1 (10 ug/mL)
How it was run: as §1

[6] = target: T1, human galectin-10-His (recombinant …); assay: BLI tandem on galectin-10-His; isotype control as saturating antibody (10 ug/mL)
How it was run: as §1

[7] = target: T1, human galectin-10-His (recombinant …); assay: BLI tandem on galectin-10-His; buffer in place of the saturating antibody
Method: In order to identify the galectin-10 binding sites of the different clones, an epitope mapping method (TANDEM), using the BLI technology, was established. Briefly, the galectin-10-His was captured on anti-HIS 1K sensor tips, before incubation with an excess of one antibody (called the “saturating” antibody) then directly transferred to a solution containing the “competitor” antibody at a suboptimal concentration. If the “saturating” and the competitor antibody bind to the same binding sites, no binding of “competitor” will be detected (expressed in nm shift).

[8] = target: T2, TEV-cleaved wild-type recombinant human …; assay: cell-based or functional assay
[9] = target: T1, human galectin-10-His (recombinant …); assay: BLI tandem on galectin-10-His; competitor: saturating 6A08 mIgG1 (10 ug/mL)
How it was run: as §1

[10] = target: T1, human galectin-10-His (recombinant …); assay: BLI tandem on galectin-10-His; competitor: saturating 6B06 mIgG1 (10 ug/mL)
How it was run: as §1

[11] = target: T1, human galectin-10-His (recombinant …); assay: BLI tandem on galectin-10-His; competitor: saturating 6E10 mIgG1 (10 ug/mL)
How it was run: as §1

[12] = target: T1, human galectin-10-His (recombinant …); assay: BLI tandem on galectin-10-His; competitor: saturating 2F09 mIgG1 (10 ug/mL)
How it was run: as §1

[13] = target: T1, human galectin-10-His (recombinant …); assay: BLI tandem on galectin-10-His; competitor: saturating 1D11 mIgG1 (10 ug/mL)
How it was run: as §1

[14] = target: T1, human galectin-10-His (recombinant …); assay: BLI tandem on galectin-10-His; competitor: saturating 1C09 mIgG1 (10 ug/mL)
How it was run: as §1

[15] = target: T1, human galectin-10-His (recombinant …); assay: BLI tandem on galectin-10-His; competitor: saturating 2C07 mIgG1 (10 ug/mL)
How it was run: as §1

human galectin-10-His [16] = target: T3, human galectin-10-His; assay: SPR Biacore T3000, scFv-human Fc captured
Method: (§2) The binding properties of the scFv-human Fc panel to galectin-10 were analyzed on the Biacore T3000. For this purpose, a CM5 Chip was coated with polyclonal anti-human Fc at 8000 RU, then a fixed concentration of the scFv-human Fc panel (1.5 μg/mL) were captured to reach a binding signal around 150 RU. Finally, a serial dilution of human or cynomolgus WGS isoform of galectin-10-His (serial dilution, 1 over 2 from 5 μg/mL, 6 points of dilution) was injected. Raw data were analyzed via BIA evaluation software with a blank subtraction (4-3). Finally, the kd/KD and Rmax of each scFv-human Fc to galectin-10-His was determined using the Fit Kinetics simultaneous ka/kd/Binding with mass transfer/Local Rmax on BIA evaluation software.

[17] = target: T4, cynomolgus galectin-10-His, WGS isoform; assay: SPR Biacore T3000, scFv-human Fc captured
Method: as §2

human galectin-10-His [18] = target: T3, human galectin-10-His; assay: binding ELISA (summary table)
Method: (§3) In a similar setup to that used during the initial screening, the relative binding properties of the 11 new scFv-human Fc clones were analyzed by ELISA. Briefly, a Maxisorp plate was coated overnight with human or cynomolgus WGS or YRT isoforms of galectin-10-His at 0.2 μg/mL and blocked with PBS 1% casein, before being incubated with a serial dilution of the scFv-human Fc fusion molecules (from 100 nM, dilution 1/5, 8 points of dilutions). After several washing steps, detection of the bound scFv-human Fc was carried out with an anti-human Fc-HRP antibody (Jackson ImmunoResearch, Catalog 109-035-008). Absorbance was measured at 450 nm (reference at 620 nm) with Tecan instrument. Finally, the raw data (OD values) were plotted on GraphPad Prism 7.01. The EC50 values of each clone, calculated with a non-linear regression (log(agonist) vs. response Variable slope (four parameters)) are reported in Table 19 below. As a positive control, clone 6F05 from the previous galectin-10 antibody panel was included.

[19] = target: T4, cynomolgus galectin-10-His, WGS isoform; assay: binding ELISA (summary table)
Method: as §3

[20] = target: T5, cynomolgus galectin-10-His, YRT isoform; assay: ELISA, coated antigen 0.2 ug/mL
Method: as §3

human galectin-10-His [21] = target: T3, human galectin-10-His; assay: ELISA, coated antigen 0.2 ug/mL
Method: as §3

[22] = target: T4, cynomolgus galectin-10-His, WGS isoform; assay: ELISA, coated antigen 0.2 ug/mL
Method: as §3

human galectin-10-His [23] = target: T3, human galectin-10-His; assay: SPR Biacore (summary table)
Method: as §2

[24] = target: T4, cynomolgus galectin-10-His, WGS isoform; assay: SPR Biacore (summary table)
Method: as §2

[25] = target: T5, cynomolgus galectin-10-His, YRT isoform; assay: binding ELISA (summary table)
Method: as §3

Binder	Kd (human galectin-10-His [16]) [pM]	koff (human galectin-10-His [16]) [s⁻¹]	kon (human galectin-10-His [16]) [M⁻¹ s⁻¹]	Kd [17] [pM]	koff [17] [s⁻¹]	kon [17] [M⁻¹ s⁻¹]	EC50 (human galectin-10-His [18]) [pM]	EC50 [19] [pM]	Bmax [20] [OD]	Bmax (human galectin-10-His [21]) [OD]	EC50 (human galectin-10-His [21]) [pM]	Bmax [22] [OD]	Kd (human galectin-10-His [23]) [pM]	koff (human galectin-10-His [23]) [s⁻¹]	kon (human galectin-10-His [23]) [M⁻¹ s⁻¹]	Kd [24] [pM]	koff [24] [s⁻¹]	kon [24] [M⁻¹ s⁻¹]	further results
B1	–	–	–	–	–	–	–	–	–	–	–	–	–	–	–	–	–	–	binding signal (nm) [1]: 0.04 nm; Bmax [2]: 2.93 OD; EC50 [2]: 80 pM; binding signal (nm) [3]: 0.02 nm; Kd [4]: 700 pM; koff [4]: 0.00487 s⁻¹; binding signal (nm) [5]: 0.05 nm; binding signal (nm) [6]: 1.15 nm; binding signal (nm) [7]: 1.22 nm; 100% Solubilization of CLC (Conc uM) [8]: 7.57 µM; binding signal (nm) [9]: 0 nm; binding signal (nm) [10]: 0.03 nm; binding signal (nm) [11]: -0.03 nm; binding signal (nm) [12]: 0 nm; binding signal (nm) [13]: 0.06 nm; binding signal (nm) [14]: 0 nm; binding signal (nm) [15]: 0.03 nm
B2	800	0.00124	1.5e+06	1500	0.0766	5e+07	1110	820	0	0.6	1110	0.6	800	0.00124	1.5e+06	1500	0.0766	5e+07	binding result [20]: no binding (tested: serial dilution from 100 nM); EC50 [22]: 820 pM
B3	300	0.00025	910000	–	–	–	80	–	3	1.2	80	–	300	0.00025	910000	–	–	–	EC50 [25]: 40 pM; EC50 [20]: 40 pM
B4	5400	0.00203	370000	7900	0.00185	240000	770	10400	2.5	1.5	770	2.5	5400	0.00203	370000	7900	0.00185	240000	–

— patent publication US20190367619A1 (ARGENX, published 2019)
